Assay results published in patent US20150284450A1, “COMBINATION THERAPIES USING ANTI-PSEUDOMONAS PSL AND PCRV BINDING MOLECULES” (priority 2012, published 2015).

What was measured:
[1] = target: rPcrV protein (recombinant Pseudomonas PcrV) (Pseudomonas aeruginosa); assay: SPR on Bio-Rad ProteOn XPR36; antibody captured on GLC chip with anti-human IgG, rPcrV injected at multiple concentrations
[2] = target: rPcrV protein (recombinant Pseudomonas PcrV) (Pseudomonas aeruginosa); assay: SPR on Bio-Rad ProteOn XPR36; antibody captured on GLC chip with anti-human IgG, rPcrV injected at multiple concentrations [table]
[3] = target: rPcrV protein (recombinant Pseudomonas PcrV) (Pseudomonas aeruginosa); assay: Bio-Rad ProteOn XPR36; antibody captured by anti-human IgG on GLC chip, rPcrV injected

Row | Kd [1] [pM] | koff [1] [s⁻¹] | kon [1] [M⁻¹ s⁻¹] | Kd [2] [pM] | koff [2] [s⁻¹] | kon [2] [M⁻¹ s⁻¹] | fold increase in Kd over V2L2-GL [3] [fold] | Binder
1 | 143 | 0.000116 | 808000 | 143 | 0.000116 | 808000 |  | V2L2-germlined mAb (V2L2-GL) (antibody, V domains shown) VH: EVQLLESGGGLVQPGGSLRLSCAASGFTFSSYAMNWVRQAPGKGLEWVSAITISGITAYYTDSVKGRFTISRDNSKNTLYLQMNSLRAEDTAVYYCAKEEFLPGTHYYYGMDVWGQGTTVTVSS VL: AIQMTQSPSSLSASVGDRVTITCRASQGIRNDLGWYQQKPGKAPKLVIYSASTLQSGVPSRFSGSGSGTDFTLSISSLQPDDFATYYCLQDYNYPWTFGQGTKVEIK
2 | 45.6 | 4.03e-05 | 884000 | 46 | 4.03e-05 | 884000 | 2 to 3 | V2L2-MD (germlined lead optimized V2L2) (antibody, V domains shown) VH: EVQLLESGGGLVQPGGSLRLSCAASGFTFSSYAMNWVRQAPGKGLEWVSAITMSGITAYYTDDVKGRFTISRDNSKNTLYLQMNSLRAEDTAVYYCAKEEFLPGTHYYYGMDVWGQGTTVTVSS VL: AIQMTQSPSSLSASVGDRVTITCRASQGIRNDLGWYQQKPGKAPKLLIYSASTLQSGVPSRFSGSGSGTDFTLTISSLQPEDFATYYCLQDYNYPWTFGQGTKVEIK
